Data taken from the supplement of paper PMC7877785.
± gives the uncertainty stated by the source.

Experiment: self-splicing fitness, log relative to wild type (ln ratio); higher = more splicing; Tetrahymena group I intron in knt gene, E. coli kanamycin selection, DiMSum; sequences stand for … in CUCUCU…GGAGGGAAAAGUUAUCAGGCAUGCACCUGGUAGCUAGUCUUUAAACCAAUAGAUUGCAUCGGUUUAAAAGGCAAGACCGUCAAAUUGCGGGAAAGGGGUCAACAGCCGUUCAGUACCAAGUCUCAGGGGAAACUUUGAGAUGGCCUUGCAAAGGGUAUGGUAAUAAGCUGACGGACAUGGUCCUAACCACGCAGCCAAGUCCUAAGUCAACAGAUCUUCUGUUGAUAUGGAUGCAGUUCACAGACUAAAUGUCGGUCGGGGAAGAUGUAUUCUUCUCAUAAGAUAUAGUCGGACCUCUCCUUAAUGGGAGCUAGCGGAUGAAGUGAUGCAACACUGGAGCCGCUGGGAACUAAUUUGUAUGCGAAAGUAUAUUGAUUAGUUUUGGAGUACUCGUGGUCG
Method in brief: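 Colonies from six replicate transformations of E. coli BL21(DE3) were pooled and amplicon-sequenced on an Illumina HiSeq 2500. The library placed an intron with all eight P1ex-region nucleotides randomised inside the knt kanamycin-resistance gene on pET-22b(+), and cells grew overnight at 37°C or 30°C on LB agar with or without 25 μg/mL kanamycin (plus 100 μg/mL carbenicillin, 50 μM IPTG, 0.2% rhamnose). Fitness is the DiMSum error-weighted combination of wild-type-normalised replicate fold changes, kanamycin versus none.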

| Sequence | self-splicing fitness (ln) (30 °C) | self-splicing fitness (ln) (37 °C) |
| --- | --- | --- |
| AAUCAGCAAUAUUACGAUAC | -0.844 ± 0.081 | -0.307 ± 0.11 |
| AAUCAGCAAUAUUACGAUCA | 0.364 ± 0.09 | 0.109 ± 0.11 |
| AAUCAGCAAUAUUACGCAUC | -0.287 ± 0.082 | 0.0734 ± 0.094 |
| AAUCAGCAAUAUUACGCCCA | -0.426 ± 0.16 | 0.216 ± 0.21 |
| AAUCAGCAAUAUUACGCCGU | -0.744 ± 0.085 | -0.531 ± 0.099 |
| AAUCAGCAAUAUUACGCCUA | -0.0982 ± 0.08 | 0.103 ± 0.09 |
| AAUCAGCAAUAUUACGCGAG | -0.887 ± 0.068 | -1.07 ± 0.088 |
| AAUCAGCAAUAUUACGCGUG | -0.227 ± 0.074 | 0.204 ± 0.085 |
| AAUCAGCAAUAUUACGGAAC | -1.37 ± 0.064 | -0.769 ± 0.093 |
| AAUCAGCAAUAUUACGGCAG | -1 ± 0.095 | -1.32 ± 0.11 |
| AAUCAGCAAUAUUACGGGUC | -2.03 ± 0.086 | -1.76 ± 0.11 |
| AAUCAGCAAUAUUACGGUUA | -0.439 ± 0.08 | -0.408 ± 0.066 |
| AAUCAGCAAUAUUACGGUUG | -1.91 ± 0.082 | -0.913 ± 0.1 |
| AAUCAGCAAUAUUACGUAAA | -0.168 ± 0.067 | 0.573 ± 0.099 |
| AAUCAGCAAUAUUACGUAGU | -0.0974 ± 0.059 | 0.211 ± 0.074 |
| AAUCAGCAAUAUUACGUCCC | -0.818 ± 0.1 | 0.164 ± 0.14 |
| AAUCAGCAAUAUUACGUCGC | -2.06 ± 0.17 | -1.24 ± 0.17 |
| AAUCAGCAAUAUUACGUGAU | -0.823 ± 0.048 | -0.268 ± 0.067 |
| AAUCAGCAAUAUUACGUGCC | -1.4 ± 0.14 | -0.598 ± 0.16 |
| AAUCAGCAAUAUUACGUUCU | 0.0868 ± 0.061 | 0.0857 ± 0.085 |
| AAUGAGCAAUAUUACGAGAG |  | -2.7 ± 0.41 |
| AAUGAGCAAUAUUACGAGUG | -3.11 ± 0.27 | -2.23 ± 0.23 |
| AAUGAGCAAUAUUACGAUGA | -2.16 ± 0.12 | -1.77 ± 0.15 |
| AAUGAGCAAUAUUACGCAGC | -3.14 ± 0.44 | -2.54 ± 0.36 |
| AAUGAGCAAUAUUACGCAGG | -2.85 ± 0.14 | -3.18 ± 0.29 |

| Sequence | self-splicing fitness (ln) (30 °C) | self-splicing fitness (ln) (37 °C) |
| --- | --- | --- |
| AAUGAGCAAUAUUACGCAUG | -2.58 ± 0.17 | -0.519 ± 0.12 |
| AAUGAGCAAUAUUACGCAUU | -3.92 ± 0.47 | -2.74 ± 0.36 |
| AAUGAGCAAUAUUACGCCCG | -2.18 ± 0.43 | -1.76 ± 0.42 |
| AAUGAGCAAUAUUACGCGCA | -2.54 ± 0.34 | -1.76 ± 0.49 |
| AAUGAGCAAUAUUACGCGUU | -3.81 ± 0.27 | -2.06 ± 0.23 |
| AAUGAGCAAUAUUACGCUGA | -3.08 ± 0.38 | -2.12 ± 0.24 |
| AAUGAGCAAUAUUACGGAAU | -4.25 ± 0.37 | -2.34 ± 0.32 |
| AAUGAGCAAUAUUACGGAGU |  | -0.994 ± 0.44 |
| AAUGAGCAAUAUUACGGGUA |  | -0.858 ± 0.23 |
| AAUGAGCAAUAUUACGGUCU | -1.96 ± 0.13 | -0.956 ± 0.13 |
| AAUGAGCAAUAUUACGGUGU | -4.53 ± 0.29 | -2.55 ± 0.19 |
| AAUGAGCAAUAUUACGGUUA | -3.02 ± 0.22 | -1.86 ± 0.15 |
| AAUGAGCAAUAUUACGUAAA | -3.26 ± 0.18 | -1.1 ± 0.18 |
| AAUGAGCAAUAUUACGUAUG |  | -2.92 ± 0.28 |
| AAUGAGCAAUAUUACGUGUG | -4.35 ± 0.3 | -1.65 ± 0.17 |
| AAUGAGCAAUAUUACGUUGA | -3.71 ± 0.24 | -2.25 ± 0.17 |
| AAUUAGCAAUAUUACGAAGA | -1.25 ± 0.17 | -0.985 ± 0.16 |
| AAUUAGCAAUAUUACGACUA | 0.0301 ± 0.1 | 0.169 ± 0.099 |
| AAUUAGCAAUAUUACGCAGA | -1.71 ± 0.33 | -1.24 ± 0.31 |
| AAUUAGCAAUAUUACGCAGG | -2.44 ± 0.23 | -1.89 ± 0.23 |
| AAUUAGCAAUAUUACGCAUC | -2.79 ± 0.24 | -1.15 ± 0.2 |
| AAUUAGCAAUAUUACGCCGG | -2.62 ± 0.34 | -0.87 ± 0.4 |
| AAUUAGCAAUAUUACGCUGA | -2.75 ± 0.4 | -2.42 ± 0.27 |
| AAUUAGCAAUAUUACGGACC |  | -1.07 ± 0.48 |
